Data as given in paper PMC11238716 (ACS Medicinal Chemistry Letters, 2024).

Target: the molecule itself
Experiment: SEC

B1: 6 × HisMBP-SREBP-1a (1–198) (domain or fragment, human, UniProt P36956-1 1-198, looked up)
chain: MDEPPFSEAALEQALGEPCDLDAALLTDIEDMLQLINNQDSDFPGLFDPPYAGSGAGGTDPASPDTSSPGSLSPPPATLSSSLEAFLSGPQAAPSPLSPPQPAPTPLKMYPSMPAFSPGPGIKEESVPLSILQTPTPQPLPGALLPQSFPAPAPPQFSSTPVLGYPSPPGGFSTGSPPGNTQQPLPGLPLASPPGVPP
binding result: binds
